B1: Gamma-crystallin S, residues 96 to 176; numbered along this chain, P22914 (parent)
chain: IQIFEKGDFSGQMYETTEDCPSIMEQFHMREIHSCKVLEGVWIFYELPNYRGRQYLLDKKEYRKPIDWGAASPAVQSFRRI

± gives the uncertainty stated by the source.

The variants in the data set derive from B1. As to the kind of experiment: abundance fitness (aPCA) (normalised: wild type 0, dead -1); higher = more abundant; growth selection in yeast, the domain comes from the species named. As to conditions: Homo sapiens.
Regarding IQIFEKGDFSGQMYETTEDCPSIMEQFHMREIHSCKVLEGVWIFYELPNYRGRQYLLDKKEYRKPIDWGAASPAVQLFRRI [S77L], the abundance fitness is -0.932 ± 0.48.

With IQIFEKGDFSGQMYETTEDCPSIMEQFHMREIHSCKVLEGVWIFYELPNYRGRQYLLDKKEYRKPIDWGAASPAVQTFRRI [S77T], the abundance fitness is -0.714 ± 0.37.

On to IQIFEKGDFSGQMYETTEDCPSIMEQFHMREIHSCKVLEGVWIFYELPNYRGRQYLLDKKEYRKPIDWGAASPAVQGFRRI [S77G], for which the abundance fitness is -0.35 ± 0.13.

On to IQIFEKGDFSGQMYETTEDCPSIMEQFHMREIHSCKVLEGVWIFYELPNYRGRQYLLDKKEYRKPIDWGAASPAVQPFRRI [S77P], for which the abundance fitness was -0.457 ± 0.23.

Take IQIFEKGDFSGQMYETTEDCPSIMEQFHMREIHSCKVLEGVWIFYELPNYRGRQYLLDKKEYRKPIDWGAASPAVQAFRRI [S77A]: the abundance fitness is -0.003 ± 0.18.

Regarding IQIFEKGDFSGQMYETTEDCPSIMEQFHMREIHSCKVLEGVWIFYELPNYRGRQYLLDKKEYRKPIDWGAASPAVQCFRRI [S77C], the abundance fitness is -0.327 ± 0.44.

For the variant IQIFEKGDFSGQMYETTEDCPSIMEQFHMREIHSCKVLEGVWIFYELPNYRGRQYLLDKKEYRKPIDWGAASPALQSFRRI [V75L], the abundance fitness was -0.046 ± 0.12.

As to IQIFEKGDFSGQMYETTEDCPSIMEQFHMREIHSCKVLEGVWIFYELPNYRGRQYLLDKKEYRKPIDWGAASPARQSFRRI [V75R], the abundance fitness is -0.665 ± 0.23.

On to IQIFEKGDFSGQMYETTEDCPSIMEQFHMREIHSCKVLEGVWIFYELPNYRGRQYLLDKKEYRKPIDWGAASPAFQSFRRI [V75F], for which the abundance fitness is 0.146 ± 0.21.

For IQIFEKGDFSGQMYETTEDCPSIMEQFHMREIHSCKVLEGVWIFYELPNYRGRQYLLDKKEYRKPIDWGAASPAWQSFRRI [V75W], the abundance fitness was -0.105 ± 0.16.

With IQIFEKGDFSGQMYETTEDCPSIMEQFHMREIHSCKVLEGVWIFYELPNYRGRQYLLDKKEYRKPIDWGAASPADQSFRRI [V75D], the abundance fitness was -0.724 ± 0.28.

Regarding IQIFEKGDFSGQMYETTEDCPSIMEQFHMREIHSCKVLEGVWIFYELPNYRGRQYLLDKKEYRKPIDWGAASPATQSFRRI [V75T], the abundance fitness is -0.211 ± 0.15.

IQIFEKGDFSGQMYETTEDCPSIMEQFHMREIHSCKVLEGVWIFYELPNYRGRQYLLDKKEYRKPIDWGAASPAEQSFRRI [V75E]: the abundance fitness is -0.821 ± 0.22.

Turning to IQIFEKGDFSGQMYETTEDCPSIMEQFHMREIHSCKVLEGVWIFYELPNYRGRQYLLDKKEYRKPIDWGAASPAGQSFRRI [V75G], the abundance fitness came out at 0.052 ± 0.16.

Take IQIFEKGDFSGQMYETTEDCPSIMEQFHMREIHSCKVLEGVWIFYELPNYRGRQYLLDKKEYRKPIDWGAASPAAQSFRRI [V75A]: the abundance fitness was -0.021 ± 0.16.

Turning to IQIFEKGDFSGQMYETTEDCPSIMEQFHMREIHSCKVLEGVWIFYELPNYRGRQYLLDKKEYRKPIDWGAASWAVQSFRRI [P73W], the abundance fitness stood at 0.089 ± 0.13.

Turning to IQIFEKGDFSGQMYETTEDCPSIMEQFHMREIHSCKVLEGVWIFYELPNYRGRQYLLDKKEYRKPIDWGAASTAVQSFRRI [P73T], the abundance fitness is -0.082 ± 0.39.

IQIFEKGDFSGQMYETTEDCPSIMEQFHMREIHSCKVLEGVWIFYELPNYRGRQYLLDKKEYRKPIDWGAASRAVQSFRRI [P73R]: the abundance fitness is -0.006 ± 0.11.

In the case of IQIFEKGDFSGQMYETTEDCPSIMEQFHMREIHSCKVLEGVWIFYELPNYRGRQYLLDKKEYRKPIDWGAASPAVQSHRRI [F78H], the abundance fitness is -0.229 ± 0.37.

For the variant IQIFEKGDFSGQMYETTEDCPSIMEQFHMREIHSCKVLEGVWIFYELPNYRGRQYLLDKKEYRKPIDWGAASPAVQSARRI [F78A], the abundance fitness was -0.136 ± 0.17.

Regarding IQIFEKGDFSGQMYETTEDCPSIMEQFHMREIHSCKVLEGVWIFYELPNYRGRQYLLDKKEYRKPIDWGAASPAVGSFRRI [Q76G], the abundance fitness was -0.066 ± 0.34.

IQIFEKGDFSGQMYETTEDCPSIMEQFHMREIHSCKVLEGVWIFYELPNYRGRQYLLDKKEYRKPIDWGAASPAVESFRRI [Q76E]: the abundance fitness is -0.145 ± 0.29.

For the variant IQIFEKGDFSGQMYETTEDCPSIMEQFHMREIHSCKVLEGVWIFYELPNYRGRQYLLDKKEYRKPIDWGAASPAVLSFRRI [Q76L], the abundance fitness was -0.129 ± 0.27.

Regarding IQIFEKGDFSGQMYETTEDCPSIMEQFHMREIHSCKVLEGVWIFYELPNYRGRQYLLDKKEYRKPIDWGAASPAVWSFRRI [Q76W], the abundance fitness is -0.441 ± 0.39.

Take IQIFEKGDFSGQMYETTEDCPSIMEQFHMREIHSCKVLEGVWIFYELPNYRGRQYLLDKKEYRKPIDWGAASPVVQSFRRI [A74V]: the abundance fitness was 0.086 ± 0.2.

Take IQIFEKGDFSGQMYETTEDCPSIMEQFHMREIHSCKVLEGVWIFYELPNYRGRQYLLDKKEYRKPIDWGAASPGVQSFRRI [A74G]: the abundance fitness amounted to 0.046 ± 0.12.

As for IQIFEKGDFSGQMYETTEDCPSIMEQFHMREIHSCKVLEGVWIFYELPNYRGRQYLLDKKEYRKPIDWGAASPMVQSFRRI [A74M], the abundance fitness was -0.011 ± 0.19.

For the variant IQIFEKGDFSGQMYETTEDCPSIMEQFHMREIHSCKVLEGVWIFYELPNYRGRQYLLDKKEYRKPIDWGAASPQVQSFRRI [A74Q], the abundance fitness came out at 0.034 ± 0.17.

Turning to IQIFEKGDFSGQMYETTEDCPSIMEQFHMREIHSCKVLEGVWIFYELPNYRGRQYLLDKKEYRKPIDWGAASPTVQSFRRI [A74T], the abundance fitness is -0.159 ± 0.16.

For the variant IQIFEKGDFSGQMYETTEDCPSIMEQFHMREIHSCKVLEGVWIFYELPNYRGRQYLLDKKEYRKPIDWGAASPCVQSFRRI [A74C], the abundance fitness was 0.203 ± 0.16.

For the variant IQIFEKGDFSGQMYETTEDCPSIMEQFHMREIHSCKVLEGVWIFYELPNYRGRQYLLDKKEYRKPIDWGAASPEVQSFRRI [A74E], the abundance fitness is -0.139 ± 0.29.

As to IQIFEKGDFSGQMYETTEDCPSIMEQFHMREIHSCKVLEGVWIFYELPNYRGRQYLLDKKEYRKPIDWGAASPSVQSFRRI [A74S], the abundance fitness was -0.111 ± 0.17.

With IQIFEKGDFSGQMYETTEDCPSIMEQFHMREIHSCKVLEGVWIFYELPNYRGRQYLLDKKEYRKPIDWGAASPLVQSFRRI [A74L], the abundance fitness turned out to be 0.113 ± 0.12.

On to IQIFEKGDFSGQMYETTEDCPSIMEQFHMREIHSCKVLEGVWIFYELPNYRGRQYLLDKKEYRKPIDWGAASPRVQSFRRI [A74R], for which the abundance fitness is 0.118 ± 0.24.

(Values after the Human Domainome abundance scans (Beltran et al. 2025).)
